Experimental data from US10253082B2, “Long-acting insulin and use thereof” (HANMI PHARM. CO., LTD., priority 2014, dated 2019).

Target: Insulin receptors (Homo sapiens, UniProt P06213)
Test: Insulin receptor binding affinity by surface plasmon resonance (BIACORE 3000)
Conditions: for ka / kd: SPR, immobilized insulin receptor, 1:1 Langmuir binding with baseline drift, Test 1-5 runs; for receptor binding affinity (KD) compared to human insulin: native human insulin of the same test = 100%
Description: Then, the insulin receptor binding affinity of each substance was examined. The binding affinity of each substance was calculated using BIAevaluation software. At this time, the model used was 1:1 Langmuir binding with baseline drift.

Row | Substance | ka | kd | receptor binding affinity (KD) compared to human insulin
1 | Insulin analog (No. 6): insulin analog, modified sequence B^24F->A; protein SEQ ID NO: 30 | 0.28 1/Ms, ×10^5 | 6.60 1/s, ×10^−3 | (14.8%)
2 | Insulin analog (No. 7): insulin analog, modified sequence B^25F->A; protein SEQ ID NO: 32 | 0.14 1/Ms, ×10^5 | 8.34 1/s, ×10^−3 | (9.9%)
3 | Insulin analog (No. 8): insulin analog, modified sequence A^14Y->E; protein SEQ ID NO: 34 | 1.78 1/Ms, ×10^5 | 12.9 1/s, ×10^−3 | (57.1%)
4 | Insulin analog (No. 9): insulin analog, modified sequence A^14Y->N; protein SEQ ID NO: 36 | 1.85 1/Ms, ×10^5 | 11.9 1/s, ×10^−3 | (78.8%)
